“And” between values parts separate entries of the source, which are not always exact repeats. Equal entries are not always repeated.
What was measured:
[1] = target: T1, human CD33 on cells (human, UniProt P20138 18-364); test: cell-based or functional assay
[2] = target: T1, human CD33 on cells; test: cell-based or functional assay; remark: listed apart in the source
[3] = target: T1, human CD33 on cells; test: cell-based or functional assay; remark: listed apart in the source
[4] = target: T2, human CD3 on T cells (human, UniProt P07766 23-207); test: cell-based or functional assay
[5] = target: T1, human CD33 on cells; test: cell-based or functional assay; remark: listed apart in the source
[6] = target: T1, human CD33 on cells; test: flow cytometry, HL-60 cells
[7] = target: T1, human CD33 on cells; test: flow cytometry, titration on KG-1 cells
[8] = target: T1, human CD33 on cells; test: flow cytometry, titration on HL-60 cells
[9] = target: T1, human CD33 on cells; test: flow cytometry, titration on U-937 cells
[10] = target: T2, human CD3 on T cells; test: flow cytometry, human T-cells (as headed in Table 10)
[11] = target: T2, human CD3 on T cells; test: flow cytometry, titration on human CD3+ T cells (Jurkat per paragraph 124/paragraph 125)
[12] = target: cynomolgus CD33 on CHO cells (cynomolgus monkey); test: flow cytometry; KD on CHO-cynomolgus CD33 cells divided by KD on CHO-human CD33 cells
[13] = target: T1, human CD33 on cells; test: cell-based or functional assay; remark: listed apart in the source

T2 sequence (P07766 23-207): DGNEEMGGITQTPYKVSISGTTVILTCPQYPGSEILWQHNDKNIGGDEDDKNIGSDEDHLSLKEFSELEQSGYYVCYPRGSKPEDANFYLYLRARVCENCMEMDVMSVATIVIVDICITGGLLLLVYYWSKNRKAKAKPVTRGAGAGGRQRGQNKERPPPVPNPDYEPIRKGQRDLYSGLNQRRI
T1 sequence (P20138 18-364): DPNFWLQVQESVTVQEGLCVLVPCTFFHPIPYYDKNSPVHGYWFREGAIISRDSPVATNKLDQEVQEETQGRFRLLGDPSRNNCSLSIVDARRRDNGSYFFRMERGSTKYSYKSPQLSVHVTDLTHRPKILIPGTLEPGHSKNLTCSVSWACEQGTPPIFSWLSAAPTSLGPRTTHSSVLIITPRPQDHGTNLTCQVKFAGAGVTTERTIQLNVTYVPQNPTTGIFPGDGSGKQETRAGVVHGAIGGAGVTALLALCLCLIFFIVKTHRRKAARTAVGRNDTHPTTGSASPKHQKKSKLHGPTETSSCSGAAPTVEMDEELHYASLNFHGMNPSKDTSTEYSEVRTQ

Binder	IC50, lysis of KG-1 cells with human T cells (E:T 5:1, 24 h) [1]	EC50 on HL-60 [pM] (cytotoxicity) [2]	EC50 [pM (pg/mL)] on human CD33+ target cell lines: HL-60 (cytotoxicity, E:T 5:1, 20-24 h) [3]	EC50 [pM (pg/mL)] on human CD33+ target cell lines: KG-1 (cytotoxicity, E:T 5:1, 20-24 h) [3]	EC50 [pM (pg/mL)] on human CD33+ target cell lines: U-937 (cytotoxicity, E:T 5:1, 20-24 h) [3]	EC50 [pM (pg/mL)] on human CD33+ target cell lines: mean of HL-60, U-937, KG-1 [3]	CD25 Induction EC50 (pM) [4]	CD69 Induction EC50 (pM) [4]	T cell Proliferation in PBMC EC50 (pM) [4]	EC50 [pM] mean, cytotoxicity on BV-173 cells [5]	EC50 [pM] mean, cytotoxicity on CHO-CD33 cells [5]	EC50 [pM] mean, cytotoxicity on HL-60 cells [5]	EC50 [pM] mean, cytotoxicity on K562 cells [5]	EC50 [pM] mean, cytotoxicity on KASUMI-1 cells [5]	EC50 [pM] mean, cytotoxicity on KG-1 cells [5]	EC50 [pM] mean, cytotoxicity on RPMI-8226 cells [5]	EC50 [pM] mean, cytotoxicity on THP-1 cells [5]	EC50 [pM] mean, cytotoxicity on U-937 cells [5]	Kd [6]	Kd [7]	other results
CD33/CD3 tandem diabody 12 (bispecific antibody, Non-covalent homodimer; domain order 1; also called TandAb 12) DIQMTQSPSSLSASVGDRVTITCRSSTGAVTTSNYANWVQQKPGKAPKALIGGTNKRAPGVPSRFSGSLIGDKATLTISSLQPEDFATYYCALWYSNLWVFGQGTKVEIKGGSGGSQVQLVQSGAEVKKPGASVKVSCKASGYTFTSYDINWVRQAPGQGLEWMGWMNPNSGNTGFAQKFQGRVTMTRDTSTSTVYMELSSLRSEDTAVYYCARDRAVTDYYYGMDVWGQGTLVTVSSGGSGQSVLTQPPSASGTPGQRVTISCSGSRSNIGSNTVNWYQQLPGTAPKLLIYGNNQRPSGVPDRFSGSKSGTSASLAISGLQSEDEADYYCATWDDSLIGWVFGGGTKLTVLGGSGGSEVQLVESGGGLVQPGGSLRLSCAASGFTFSTYAMNWVRQAPGKGLEWVGRIRSKYNNYATYYADSVKDRFTISRDDSKNSLYLQMNSLKTEDTAVYYCARHGNFGNSYVSYFAYWGQGTLVTVSSAAAGSHHHHHH	~0.01 pM	1.3 pM	1.3 pM and 137 pg/mL	1.2 pM and 126 pg/mL	0.8 pM and 84 pg/mL	1.1 pM and 116 pg/mL	6 pM	3 pM	2 pM	1.4 pM	11.8 pM	1.4 pM	4.5 pM	1.3 pM	1 pM	14 pM	1.9 pM	0.9 pM	300 pM	900 pM	Kd [8]: 300 pM; Kd [9]: 500 pM; Kd [10]: 1500 pM; Kd [11]: 1500 pM; KD ratio cynoCD33/ huCD33 [12]: 1.7
CD33/CD3 tandem diabody 16 (bispecific antibody, Non-covalent homodimer; domain order 1; also called TandAb 16) DIQMTQSPSSLSASVGDRVTITCRSSTGAVTTSNYANWVQQKPGKAPKALIGGTNKRAPGVPSRFSGSLIGDKATLTISSLQPEDFATYYCALWYSNLWVFGQGTKVEIKGGSGGSQVQLVQSGAEVKKPGASVKVSCKASGYTFTSYDINWVRQAPGQGLEWMGWMNPNSGNTGFAQKFQGRVTMTRDTSTSTVYMELSSLRSEDTAVYYCARDRANTDYSLGMDVWGQGTLVTVSSGGSGQSVLTQPPSASGTPGQRVTISCSGSRSNIGSNTVNWYQQLPGTAPKLLIYGNNQRPSGVPDRFSGSKSGTSASLAISGLQSEDEADYYCATWDDSLIGWVFGGGTKLTVLGGSGGSEVQLVESGGGLVQPGGSLRLSCAASGFTFSTYAMNWVRQAPGKGLEWVGRIRSKYNNYATYYADSVKDRFTISRDDSKNSLYLQMNSLKTEDTAVYYCARHGNFGNSYVSYFAYWGQGTLVTVSSAAAGSHHHHHH	~0.5 pM	1.5 pM	1.5 pM and 158 pg/mL	1.8 pM and 189 pg/mL	1.9 pM and 200 pg/mL	1.7 pM and 179 pg/mL	1 pM	2 pM	3 pM	3.2 pM	24 pM	1.6 pM	4.8 pM	2.4 pM	1.9 pM	2.8 pM	6 pM	1.3 pM	300 pM	200 pM	IC50, lysis of KG-1 cells (separate experiment) [1]: 5 pM; EC50 [pM], calcein release, HL-60 targets, E:T 25:1, incubation 30 min [13]: 4.8 pM; EC50 [pM], calcein release, HL-60 targets, E:T 25:1, incubation 60 min [13]: 2.5 pM; EC50 [pM], calcein release, HL-60 targets, E:T 25:1, incubation 120 min [13]: 1.6 pM; EC50 [pM], calcein release, HL-60 targets, E:T 25:1, incubation 180 min [13]: 1.6 pM; EC50 [pM], calcein release, HL-60 targets, E:T 25:1, incubation 240 min [13]: 1.5 pM; EC50 [pM], calcein release, HL-60 targets, E:T 25:1, incubation 300 min [13]: 1.6 pM; Kd [8]: 300 pM; Kd [9]: 300 pM; Kd [10]: 5100 pM; Kd [11]: 2100 pM; KD ratio cynoCD33/ huCD33 [12]: 1.4

From patent EP4813396A2 (Amphivena Therapeutics, Inc., dated 2026)
